Publication PMC10872772

Tests used:
Experiment in all cases: FRET or BRET
Set-up in all cases: unit not given beside the values
GST-LXRα LBD (human) = molecular target: T1, GST-LXRα LBD (human)
T1 sequence (Q13133 whole entry, looked up): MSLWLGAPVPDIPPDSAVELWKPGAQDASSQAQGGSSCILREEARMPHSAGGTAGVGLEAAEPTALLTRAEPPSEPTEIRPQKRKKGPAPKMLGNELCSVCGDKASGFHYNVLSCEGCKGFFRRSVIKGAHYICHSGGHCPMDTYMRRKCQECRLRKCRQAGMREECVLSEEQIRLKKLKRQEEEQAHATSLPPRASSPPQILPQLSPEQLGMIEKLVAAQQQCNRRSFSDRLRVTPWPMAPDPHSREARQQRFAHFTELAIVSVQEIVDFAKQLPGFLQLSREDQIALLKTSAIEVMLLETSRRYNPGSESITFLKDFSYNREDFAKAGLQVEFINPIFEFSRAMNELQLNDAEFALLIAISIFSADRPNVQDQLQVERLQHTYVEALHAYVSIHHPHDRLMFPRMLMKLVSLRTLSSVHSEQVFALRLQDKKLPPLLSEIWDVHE

GST-LXRβ LBD (human) = molecular target: T2, GST-LXRβ LBD (human)
T2 sequence (P55055 whole entry, looked up): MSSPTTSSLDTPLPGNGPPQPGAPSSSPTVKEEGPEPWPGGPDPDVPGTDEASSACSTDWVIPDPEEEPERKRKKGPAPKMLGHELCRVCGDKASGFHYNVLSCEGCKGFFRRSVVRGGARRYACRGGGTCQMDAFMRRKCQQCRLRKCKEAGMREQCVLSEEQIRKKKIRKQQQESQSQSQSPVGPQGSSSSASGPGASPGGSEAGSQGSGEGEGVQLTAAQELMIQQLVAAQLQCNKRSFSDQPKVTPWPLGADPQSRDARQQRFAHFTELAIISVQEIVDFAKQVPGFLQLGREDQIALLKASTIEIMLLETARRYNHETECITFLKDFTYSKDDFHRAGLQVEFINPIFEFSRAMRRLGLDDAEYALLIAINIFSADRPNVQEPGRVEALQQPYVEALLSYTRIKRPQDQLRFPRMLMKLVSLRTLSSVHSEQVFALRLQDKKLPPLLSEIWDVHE

[1] = molecular target: T3, GST-PXR LBD protein (human)
T3 sequence (O75469 whole entry, species assumed, looked up): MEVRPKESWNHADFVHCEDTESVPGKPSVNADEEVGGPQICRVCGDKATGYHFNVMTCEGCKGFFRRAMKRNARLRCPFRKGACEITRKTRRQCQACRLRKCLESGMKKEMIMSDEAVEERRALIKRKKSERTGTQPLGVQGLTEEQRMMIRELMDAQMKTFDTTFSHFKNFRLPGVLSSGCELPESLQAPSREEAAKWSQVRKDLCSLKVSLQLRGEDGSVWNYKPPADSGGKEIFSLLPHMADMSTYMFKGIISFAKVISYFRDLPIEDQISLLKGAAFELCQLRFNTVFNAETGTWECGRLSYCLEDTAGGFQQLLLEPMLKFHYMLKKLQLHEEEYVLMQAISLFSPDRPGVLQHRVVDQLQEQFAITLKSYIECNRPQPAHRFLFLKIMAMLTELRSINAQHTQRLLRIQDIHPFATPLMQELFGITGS

B1: FAM-SRC1-B peptide (peptide)
peptide: {FAM-(PEG)5}-CPSSHSSLTERHKILHRLLQEGSPS-NH2
AUC of SRC-1 recruitment (TR-FRET) with SJPYT-299 (GST-LXRα LBD (human)): 67.1 | AUC of SRC-1 recruitment (TR-FRET) with SJPYT-300 (GST-LXRα LBD (human)): 80.2 | AUC of SRC-1 recruitment (TR-FRET) with SJPYT-301 (GST-LXRα LBD (human)): 95.1 | AUC of SRC-1 recruitment (TR-FRET) with SJPYT-302 (GST-LXRα LBD (human)): 108 | AUC of SRC-1 recruitment (TR-FRET) with SJPYT-303 (GST-LXRα LBD (human)): 63.6 | AUC of SRC-1 recruitment (TR-FRET) with SJPYT-304 (GST-LXRα LBD (human)): 59.5 | AUC of SRC-1 recruitment (TR-FRET) with SJPYT-305 (GST-LXRα LBD (human)): 33.4 | AUC of SRC-1 recruitment (TR-FRET) with SJPYT-315 (GST-LXRα LBD (human)): 62.3 | AUC of SRC-1 recruitment (TR-FRET) with SJPYT-316 (GST-LXRα LBD (human)): 60.8 | AUC of SRC-1 recruitment (TR-FRET) with SJPYT-317 (GST-LXRα LBD (human)): 27.2 | AUC of SRC-1 recruitment (TR-FRET) with T0901317 (GST-LXRα LBD (human)): 122 | AUC of SRC-1 recruitment (TR-FRET) with SJPYT-299 (GST-LXRβ LBD (human)): 133 | AUC of SRC-1 recruitment (TR-FRET) with SJPYT-300 (GST-LXRβ LBD (human)): 136 | AUC of SRC-1 recruitment (TR-FRET) with SJPYT-301 (GST-LXRβ LBD (human)): 154 | AUC of SRC-1 recruitment (TR-FRET) with SJPYT-302 (GST-LXRβ LBD (human)): 149 | AUC of SRC-1 recruitment (TR-FRET) with SJPYT-303 (GST-LXRβ LBD (human)): 120 | AUC of SRC-1 recruitment (TR-FRET) with SJPYT-304 (GST-LXRβ LBD (human)): 125 | AUC of SRC-1 recruitment (TR-FRET) with SJPYT-305 (GST-LXRβ LBD (human)): 76.1 | AUC of SRC-1 recruitment (TR-FRET) with SJPYT-315 (GST-LXRβ LBD (human)): 117 | AUC of SRC-1 recruitment (TR-FRET) with SJPYT-316 (GST-LXRβ LBD (human)): 144 | AUC of SRC-1 recruitment (TR-FRET) with SJPYT-317 (GST-LXRβ LBD (human)): 71.3 | AUC of SRC-1 recruitment (TR-FRET) with SJPYT-318 (GST-LXRβ LBD (human)): 21.8 | AUC of SRC-1 recruitment (TR-FRET) with SJPYT-319 (GST-LXRβ LBD (human)): 21.5 | AUC of SRC-1 recruitment (TR-FRET) with T0901317 (GST-LXRβ LBD (human)): 202 | AUC of SRC-1 recruitment (TR-FRET) with SJPYT-299 [1]: 102 | AUC of SRC-1 recruitment (TR-FRET) with SJPYT-300 [1]: 102 | AUC of SRC-1 recruitment (TR-FRET) with SJPYT-301 [1]: 129 | AUC of SRC-1 recruitment (TR-FRET) with SJPYT-302 [1]: 102 | AUC of SRC-1 recruitment (TR-FRET) with SJPYT-303 [1]: 134 | AUC of SRC-1 recruitment (TR-FRET) with SJPYT-304 [1]: 113 | AUC of SRC-1 recruitment (TR-FRET) with SJPYT-305 [1]: 161 | AUC of SRC-1 recruitment (TR-FRET) with SJPYT-315 [1]: 57.4 | AUC of SRC-1 recruitment (TR-FRET) with SJPYT-316 [1]: 38.7 | AUC of SRC-1 recruitment (TR-FRET) with SJPYT-317 [1]: 39.5 | AUC of SRC-1 recruitment (TR-FRET) with SJPYT-318 [1]: 47.1 | AUC of SRC-1 recruitment (TR-FRET) with SJPYT-319 [1]: 23.6 | AUC of SRC-1 recruitment (TR-FRET) with T0901317 [1]: 124
